Source: patent CN115490771A (HEFEI TIANGANG IMMUNOLOGY PHARMACEUTICAL CO LTD, dated 2022)

Key:
[1] = target: T1, CD155 on tumour cells (NCI-H1299, NCI-H358, HepG2) (UniProt P15151 21-417, limits assumed); assay: flow cytometry on NCI-H1299 lung cancer cells, Alexa-647 anti-human Fc secondary antibody
T1 construct: whole, on cells; also called 表达CD155的肺癌NCI-H1299细胞; NCI-H358细胞
T1 sequence (looked up): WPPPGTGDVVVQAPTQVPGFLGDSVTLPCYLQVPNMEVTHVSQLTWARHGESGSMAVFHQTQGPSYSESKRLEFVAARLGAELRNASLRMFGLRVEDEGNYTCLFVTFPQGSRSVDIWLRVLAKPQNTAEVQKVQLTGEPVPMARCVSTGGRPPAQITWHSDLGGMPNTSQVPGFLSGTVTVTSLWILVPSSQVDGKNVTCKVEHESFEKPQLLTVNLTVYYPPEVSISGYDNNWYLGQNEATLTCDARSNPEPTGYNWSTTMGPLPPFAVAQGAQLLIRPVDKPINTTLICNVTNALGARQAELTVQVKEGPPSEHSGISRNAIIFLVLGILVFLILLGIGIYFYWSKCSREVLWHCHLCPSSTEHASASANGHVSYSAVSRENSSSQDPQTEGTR

[2] = target: T2, CD155蛋白 on CHO-K1-CD155 cells (Homo sapiens (Human), UniProt P15151 21-417); assay: flow cytometry on CHO-K1-CD155 cells, Alexa-647 anti-human Fc secondary antibody
T2 construct: also called CHO-K1-CD155细胞
T2 sequence: T1 sequence (looked up)

B1: 双特异抗体 CD3×TIGIT extra (重组双特异抗体, 实施例1) (bispecific antibody, IgG1)
chain 1: EVQLLESGGGLVQPGGSLKLSCAASGFTFNTYAMNWVRQAPGKGLEWVARIRSKYNNYATYYADSVKDRFTISRDDSKNTAYLQMNNLKTEDTAVYYCVRHGNFGNSYVSWFAYWGQGTLVTVSSGGGGSGGGGSGGGGSELVVTQEPSLTVSPGGTVTLTCRSSTGAVTTSNYANWVQQKPGQAPRGLIGGTNKRAPGTPARFSGSLLGGKAALTLSGVQPEDEAEYYCALWYSNLWVFGGGTKLTVLGGGGSPKSCDKTHTCPPCPAPEAAGGPSVFLFPPKPKDTLMISRTPEVTCVVVDVSHEDPEVKFNWYVDGVEVHNAKTKPREEQYNSTYRVVSVLTVLHQDWLNGKEYKCKVSNKALPAPIEKTISKAKGQPREPQVYTLPPSREEMTKNQVSLWCLVKGFYPSDIAVEWESNGQPENNYKTTPPVLDSDGSFFLYSKLTVDKSRWQQGNVFSCSVMHEALHNHYTQKSLSLSPGK
chain 2: MMTGTIETTGNISAEKGGSIILQCHLSSTTAQVTQVNWEQQDQLLAICNADLGWHISPSFKDRVAPGPGLGLTLQSLTVNDTGEYFCIYHTYPDGTYTGRIFLEVLESSVAEHGARFQIPGGGGSPKSCDKTHTCPPCPAPEAAGGPSVFLFPPKPKDTLMISRTPEVTCVVVDVSHEDPEVKFNWYVDGVEVHNAKTKPREEQYNSTYRVVSVLTVLHQDWLNGKEYKCKVSNKALPAPIEKTISKAKGQPREPQVYTLPPSREEMTKNQVSLSCAVKGFYPSDIAVEWESNGQPENNYKTTPPVLDSDGSFFLVSKLTVDKSRWQQGNVFSCSVMHEALHNHYTQKSLSLSPGK
notes: Two-chain heterodimer joined through knob-into-hole IgG1 Fc regions; also called 双特异性抗体; 重组抗体
B1: binds [1]; binds [2].
